The target of this assay is HA of A/CA/04/09 (H1N1) virus (Influenza A virus A/CA/04/09 (H1N1)). The experiment in a line: cell-based or functional assay.

B1: CT120 (antibody, V domains shown)
VH: QVQLVQSGAEVKMPGSSVKVSCKTSGVFFSSHAISWVRQAPGQGLEWMGGISPMFGTTHYAQKFQGRVTITADQSTTTAYMELTSLTSEDTAVYYCARDGAGSYYPLNWFDPWGQGTLVTVSS
VL: EIVLTQSPATLSLSPGERATLSCRASENIWNNLAWYQQKPGQAPRLLISGASTGATGVPSRFRGSGSRTEFTLTISSLQSEDFAIYFCQQYNSWPRTFGPGTKVEIKR
Turning to B1, the “EC50, microneutralization test” value stood at 0.21 µg/mL.

(Values after US20160052997A1 (CELLTRION, published 2016).)
